# Patent publication US20220267403A1 (FRED HUTCHINSON CANCER RESEARCH CENTER, published 2022)
# T1: 5T4 17-25 variant R1A (alanine-substituted) peptide on HLA-A*02:01 (human)
# T1 peptide: ALARLALVL
# T2: 5T4 17-25 variant R4A (alanine-substituted) peptide on HLA-A*02:01 (human)
# T2 peptide: RLAALALVL
# T3: UTY peptide on HLA-A*02:01 (human)
# T3 peptide: KAFQDVLYV
# T4: DDX3Y peptide on HLA-A*02:01 (human)
# T4 peptide: FLLDILGAT
# T5: 5T4 (trophoblast glycoprotein, TPBG) peptide on HLA-A*02:01 (human)
# T5 peptide: RLARLALVL
# How the values were obtained:
# [1] = target: T1, 5T4 17-25 variant R1A …; assay: killing
# [2] = target: T2, 5T4 17-25 variant R4A …; assay: killing
# [3] = target: T3, UTY peptide on HLA-A*02:01; assay: killing
# [4] = target: T4, DDX3Y peptide on HLA-A*02:01; assay: killing
# [5] = target: T5, 5T4 (trophoblast glycoprotein, TPBG) …; assay: multimer staining
# [6] = target: T6, HLA-A*0201 on the surface of T2 cells (human); assay: HLA-A2 stabilization on T2 cells, BB7.2 staining, flow cytometry
# T6 construct: Class I molecule that the test peptides load in the HLA-A2 stabilization assay; also called HLA-A2
# Procedure: Aliquots of 2×10⁵ T2 cells were cultured in serum-free RPMI media supplemented with human β₂-microglobulin at 5 μg/mL plus the test peptide.
Binder,binding result [5],binding result [6],binding result [1],binding result [2],binding result [3],binding result [4]
RLARAALVL (Alanine-substituted variant of 5T4p17) [L5A synthetic peptide RLARAALVL],–,no binding,–,–,–,–
RLARLAAVL (Alanine-substituted variant of 5T4p17) [L7A synthetic peptide RLARLAAVL],–,no binding,–,–,–,–
ALARLALVL (Alanine-substituted variant of 5T4p17) [R1A synthetic peptide ALARLALVL],–,binds,–,–,–,–
RLAALALVL (Alanine-substituted variant of 5T4p17) [R4A synthetic peptide RLAALALVL],–,binds,–,–,–,–

# Further lines, with some results ahead:
binding result [5],binding result [6],Binder,binding result [1],binding result [2],binding result [3],binding result [4]
recognises,–,"Clone15-3F10 (TCR, V domains shown) Valpha: AQTVTQSQPEMSVQEAETVTLSCTYDTSENNYYLFWYKQPPSRQMILVIRQEAYKQQNATENRFSVNFQKAAKSFSLKISDSQLGDTAMYFCASMYSGGGADGLTFGKGTHLIIQP Vbeta: EAQVTQNPRYLITVTGKKLTVTCSQNMNHEYMSWYRQDPGLGLRQIYYSMNVEVTDKGDVPEGYKVSRKEKRNFPLILESPSPNQTSLYFCASSFFSNTGELFFGEGSRLTVL",recognises,no recognition,no recognition,no recognition
–,no binding,RLARLALAL (Alanine-substituted variant of 5T4p17) [V8A synthetic peptide RLARLALAL],–,–,–,–
recognises,–,"Clone3-6C3 (TCR, V domains shown) Valpha: AQTVTQSQPEMSVQEAETVTLSCTYDTSESDYYLFWYKQPPSRQMILVIRQEAYKQQNATENRFSVNFQKAAKSFSLKISDSQLGDAAMYFCSSGGGADGLTFGKGTHLIIQP Vbeta: NAGVTQTPKFRVLKTGQSMTLLCAQDMNHEYMYWYRQDPGMGLRLIHYSVGEGTTAKGEVPDGYNVSRLKKQNFLLGLESAAPSQTSVYFCASMDLAFKQYFGPGTRLTVT",no recognition,no recognition,no recognition,no recognition
recognises,–,"Clone19-5C2 (TCR, V domains shown) Valpha: AQTVTQSQPEMSVQEAETVTLSCTYDTSESDYYLFWYKQPPSRQMILVIRQEAYKQQNATENRFSVNFQKAAKSFSLKISDSQLGDAAMYFCAYRSGSDGGSQGNLIFGKGTKLSVKP Vbeta: ETGVTQTPRHLVMGMTNKKSLKCEQHLGHNAMYWYKQSAKKPLELMFVYSLEERVENNSVPSRFSPECPNSSHLFLHLHTLQPEDSALYLCASSQVSGYEQYFGPGTRLTVT",no recognition,no recognition,no recognition,no recognition
recognises,–,"Clone21-7A10 (TCR, V domains shown) Valpha: GQSLEQPSEVTAVEGAIVQINCTYQTSGFYGLSWYQQHDGGAPTFLSYNALDGLEETGRFSSFLSRSDSYGYLLLQELQMKDSASYFCAVRDDYGQNFVFGPGTRLSVLP Vbeta: NAGVMQNPRHLVRRRGQEARLRCSPMKGHSHVYWYRQLPEEGLKFMVYLQKENIIDESGMPKERFSAEFPKEGPSILRIQQVVRGDSAAYFCASSPQGDNEQFFGPGTRLTVL",recognises,no recognition,no recognition,no recognition
recognises,–,"Clone2-6B8 (TCR, V domains shown) Valpha: QKEVEQNSGPLSVPEGAIASLNCTYSDRGSQSFFWYRQYSGKSPELIMFIYSNGDKEDGRFTAQLNKASQYVSLLIRDSQPSDSATYLCAVPDDAGNMLTFGGGTRLMVKP Vbeta: DAGITQSPRYKITETGRQVTLMCHQTWSHSYMFWYRQDLGHGLRLIYYSAAADITDKGEVPDGYVVSRSKTENFPLTLESATRSQTSVYFCASSELPAGGTNEQFFGPGTRLTVL",recognises,no recognition,no recognition,no recognition
